# Data taken from PMC12549891.
# Target: human olfactory CNGA2/A4/B1b heterotetrameric channel (human) (UniProt Q16280)
# Sequence (Q16280 whole entry, chain 1 of 3): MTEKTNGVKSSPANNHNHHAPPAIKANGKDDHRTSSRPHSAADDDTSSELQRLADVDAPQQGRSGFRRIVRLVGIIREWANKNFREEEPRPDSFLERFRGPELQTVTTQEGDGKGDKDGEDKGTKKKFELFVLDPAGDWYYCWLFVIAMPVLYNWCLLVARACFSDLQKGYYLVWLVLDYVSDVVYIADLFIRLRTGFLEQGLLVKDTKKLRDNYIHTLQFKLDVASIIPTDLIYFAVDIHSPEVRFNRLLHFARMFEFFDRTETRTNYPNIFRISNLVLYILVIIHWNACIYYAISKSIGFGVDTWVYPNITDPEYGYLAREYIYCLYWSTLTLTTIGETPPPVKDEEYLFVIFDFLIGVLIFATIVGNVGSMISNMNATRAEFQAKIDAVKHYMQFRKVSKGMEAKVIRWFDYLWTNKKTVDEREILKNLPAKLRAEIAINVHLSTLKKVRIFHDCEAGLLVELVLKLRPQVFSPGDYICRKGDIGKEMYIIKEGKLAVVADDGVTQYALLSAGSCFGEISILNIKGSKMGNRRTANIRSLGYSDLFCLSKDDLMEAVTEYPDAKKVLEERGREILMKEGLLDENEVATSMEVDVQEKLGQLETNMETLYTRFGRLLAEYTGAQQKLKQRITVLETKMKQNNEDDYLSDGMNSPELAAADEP
# Sequence (Q8IV77 whole entry, chain 2 of 3, further chain): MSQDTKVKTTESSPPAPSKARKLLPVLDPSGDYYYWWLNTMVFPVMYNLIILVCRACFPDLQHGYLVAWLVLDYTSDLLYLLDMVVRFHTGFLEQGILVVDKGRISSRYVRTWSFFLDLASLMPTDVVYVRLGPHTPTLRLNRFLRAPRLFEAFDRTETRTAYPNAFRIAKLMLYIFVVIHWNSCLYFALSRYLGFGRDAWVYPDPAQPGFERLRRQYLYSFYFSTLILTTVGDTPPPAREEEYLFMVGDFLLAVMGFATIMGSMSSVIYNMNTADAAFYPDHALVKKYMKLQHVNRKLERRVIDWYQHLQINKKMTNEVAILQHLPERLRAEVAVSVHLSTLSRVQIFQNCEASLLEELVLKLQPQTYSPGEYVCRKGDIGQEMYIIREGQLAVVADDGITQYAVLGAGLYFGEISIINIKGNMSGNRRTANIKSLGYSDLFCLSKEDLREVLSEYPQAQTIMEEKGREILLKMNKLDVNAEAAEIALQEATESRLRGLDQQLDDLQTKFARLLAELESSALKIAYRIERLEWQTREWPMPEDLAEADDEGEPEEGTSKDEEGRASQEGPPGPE
# Sequence (Q14028 456-1251, chain 3 of 3, further chain): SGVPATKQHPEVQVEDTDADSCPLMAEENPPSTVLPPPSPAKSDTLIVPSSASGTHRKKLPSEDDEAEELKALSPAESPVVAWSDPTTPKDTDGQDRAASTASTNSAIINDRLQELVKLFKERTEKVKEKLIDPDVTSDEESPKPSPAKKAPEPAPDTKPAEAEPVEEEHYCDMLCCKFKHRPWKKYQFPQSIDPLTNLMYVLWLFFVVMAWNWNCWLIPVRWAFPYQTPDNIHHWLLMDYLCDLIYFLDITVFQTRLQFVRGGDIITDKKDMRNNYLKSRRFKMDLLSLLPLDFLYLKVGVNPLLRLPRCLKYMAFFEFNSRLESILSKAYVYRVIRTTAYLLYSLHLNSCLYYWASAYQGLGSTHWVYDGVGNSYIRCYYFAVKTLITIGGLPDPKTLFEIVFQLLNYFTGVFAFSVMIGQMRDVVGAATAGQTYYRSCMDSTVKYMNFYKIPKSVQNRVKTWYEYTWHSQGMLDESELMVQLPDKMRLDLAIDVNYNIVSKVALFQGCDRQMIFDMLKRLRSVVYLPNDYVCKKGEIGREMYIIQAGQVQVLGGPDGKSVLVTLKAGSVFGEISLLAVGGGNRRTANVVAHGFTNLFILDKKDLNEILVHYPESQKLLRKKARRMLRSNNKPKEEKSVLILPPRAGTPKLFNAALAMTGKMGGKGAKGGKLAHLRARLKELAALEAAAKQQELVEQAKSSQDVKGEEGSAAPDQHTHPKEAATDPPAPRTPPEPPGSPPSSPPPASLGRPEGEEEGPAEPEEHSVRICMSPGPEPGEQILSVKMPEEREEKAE
substance,measurement,value
human calmodulin (from UniProt P0DP23 1-149) (natural protein),time of washout with EGTA-containing bath solution needed to remove the bound (endogenous) CaM from the channel in excised patches,10 min
